Experimental findings from US20240123029A1 (HUMANITAS MIRASOLE S P A, published 2024) are described below.

The target in this experiment is T1, SARS-CoV-2 S1 protein, His Tag (SARS-CoV-2, UniProt P0DTC2 16-685).
T1 construct: domain: S1; Bought
In words: ELISA, His-tagged viral protein captured on nickel plates (6.25-50 pmol/mL). For orientation: ELISA stands for enzyme-linked immunosorbent assay.

B1: Purified C-reactive protein (CRP) (other)
chain: QTDMSRKAFVFPKESDTSYVSLKAPLTKPLKAFTVCLHFYTELSSTRGYSIFSYATKRQDNEILIFWSKDIGYSFTVGGSEILFEVPEVTVAPVHICTSWESASGIVEFWVDGKPRVRKSLKKGYTVGAEASIILGQEQDSFGGNFEGSQSLVGDIGNVNMWDFVLSPDEINTIYLGGPFSPNVLNWRALKYEVQGEVFTKPQLWP
Take B1: the binding result is “no binding (tested: CRP 3 µg/mL)”.
